From the supplement of paper PMC12042874 come the findings set out here.

± gives the uncertainty stated by the source.

The data set in a line: amyloid nucleation score (Sup35N fusion, yeast selection) (log enrichment); library NNK3; higher = more nucleation; inactive = no reads after selection. The gist of the method: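 On medium lacking adenine and uracil, psi-negative yeast expressing peptides of 20 random codons fused to Sup35N were grown 7 days at 30°C after a 24-hour induction with 100 μM copper sulfate. Illumina sequencing of input and output plasmid inserts gave the reads, and sequences under 100 input reads were excluded. The nucleation score is the DiMSum log enrichment of output over input reads, centred on the mode score of non-aggregating sequences.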
VLRYWRRLGQYTAGSYPEVL: the amyloid nucleation score result is “inactive”. For VLSSWTIK the value was “inactive”; for VLTIRRFLRVSHFRNQWFPV, “inactive”; for VLVCYC, “inactive”.

VLVFSLISFLSWDWCSYLV: the amyloid nucleation score entry is “inactive”. The figure for VMCGNMWVYVKSLDT is 0.96 ± 0.11. Regarding VMGVPST, the amyloid nucleation score entry was “inactive”. For VMHGFVGAAKSNWKNPWHRA the value was “inactive”; for VMLFY, 0.845 ± 0.14. For VMQYLLMAEKNQLRLQRFAR the value was “inactive”; for VMSKIISTQLVDMR, “inactive”; for VMYCYWSLIMSDSCNFMCQY, 2.08 ± 0.058. The figure for VMYSGFRVILF is 0.751 ± 0.15; for VNCATWNLNFTRMFMACIGL it is 1.28 ± 0.12; for VNFRIKAIVVSLRGYDWLSG it is 0.287 ± 0.67.

As to VNGNVDKFQKSKSLGTFVTT, the amyloid nucleation score result is “inactive”. For VNNKIVVWTIMSSNDERLPS the value was 1.54 ± 0.082; for VNSGVGVSVRRASSLCLCVR, “inactive”. For VNSLNHYYLIPCARFEPEG the value was “inactive”. Substance VNTFVFTGFCMYSFVMSWLN came in with an amyloid nucleation score of 0.525 ± 0.2.

Regarding VNWIVLSYHYNRYDVGNMAS, the amyloid nucleation score is 2.87 ± 0.074. Take VNYDSLPVLRPGSEGGVLFN: the amyloid nucleation score result was “inactive”. For VNYHFYKFYGPWRVWNRTRA the value was 1.95 ± 0.086; for VNYLYPS, “inactive”. For VNYSLQVNFVFRWARFKLWL the value was “inactive”.

Regarding VPEWG, the amyloid nucleation score result was “inactive”. For VPFVRVNDALVVVSLWDKVL the value was “inactive”. VPSQLFLHRHHCVVWIEDMW gave an amyloid nucleation score of 0.827 ± 0.19. For VPVRSSYMTEMYVCSGISPR the value was “inactive”; for VPVVYGSCCKHRGICMYVL, “inactive”; for VQAAKLVYHYQGSCLNRLRE, “inactive”.

For VQSMKMGPVRISKCNDKSER, the amyloid nucleation score entry was “inactive”. The entry for VRACNRLVYRFGDTVISDKR is “inactive”; for VRAPTYVGAWSPGEFNYRSD it is “inactive”; for VRFCGLLIGQVTWFLAVLEY it is “inactive”. The figure for VRFLGFHKCVILAIDYDQFL is 1.67 ± 0.1; for VRFNSYAFYITIVGGKHTTT it is 2.38 ± 0.059. Turning to VRFYVAYFILFSDATAMALK, the amyloid nucleation score entry is “inactive”. For VRGLDVCTDEFCVQLDYMW the value was “inactive”; for VRIKFCAWKLGYGSTGNVHI, 0.657 ± 0.2; for VRITSMPTFWRIEPGYLERV, “inactive”. The entry for VRKVSTAPAELHAIKSGDTH is “inactive”. The entry for VRLTLIRSLRARRDGEDSKM is “inactive”; for VRLYMYMTILIGNVDLFVEG it is “inactive”.

In the case of VRMCVIVQVKVCARDMTVST, the amyloid nucleation score entry was “inactive”.

On to VRQHCQMLMILFLYPLACGS, for which the amyloid nucleation score entry was “inactive”. The entry for VRRCNTCLQ is “inactive”. Turning to VRRTLYISMRLRLIPYLSNV, the amyloid nucleation score was 1.62 ± 0.11. For VRSHPCSGGTLVGWDSYW the value was 1.01 ± 0.14; for VRSIRWKVT, “inactive”; for VRVELNYKMMHMSHRIMY, 1.52 ± 0.073. The entry for VRVMDLVGKALSTSSVANLA is “inactive”; for VSACIWRKLPVFVYSVSAGS it is “inactive”. For VSANSMFIRGLIDSILAELA the value was “inactive”; for VSASILS, “inactive”; for VSCESECLLLMIKKYFGSDS, 0.12 ± 0.26. Consider VSDIGCMGVDSLSPGYHNIV, for which the amyloid nucleation score entry was “inactive”. Take VSDKHVYCMEGCMP: the amyloid nucleation score entry was “inactive”. The entry for VSDRVSLSVGG is “inactive”; for VSEIW it is “inactive”. Take VSETMWMSFLTVSFELRVDG: the amyloid nucleation score entry was “inactive”. The figure for VSFELYMHFSSFSYFGMLKG is 1.16 ± 0.13; for VSFHRRKLNHCNCRML it is “inactive”. The entry for VSFNKPLKQVKGPAVTGWKE is “inactive”; for VSFNP it is -0.32 ± 0.6. Substance VSFYIVKSLEEAGVSR came in with an amyloid nucleation score of 1.36 ± 0.15. For VSIRTR the value was “inactive”; for VSKVMSEMIYVGIYICKCCL, 1.39 ± 0.11; for VSMVQVTIRKRAS, “inactive”. For VSNDLWATVYHWGL the value was “inactive”; for VSNYTSRNNYVNCQLELTRA, “inactive”. The entry for VSRFVLLWMSNCWATYGLFR is “inactive”; for VSRGDTINIISSVDCVKTYF it is “inactive”. As to VSRRFVIM, the amyloid nucleation score was determined as 0.45 ± 0.17. For VSRYGYCCRRIYAELHGFPD the value was “inactive”; for VSSATTTMARRIHCFRVSRV, “inactive”; for VSSEGYIADTA, 0.292 ± 0.57. For VSTHVLHPYTYT the value was “inactive”.

Take VSTWGRDLVVTIAGR: the amyloid nucleation score entry was “inactive”. For VSVCLKELHQ the value was “inactive”; for VSVEFRSDSARWGNDVCEET, “inactive”. For VSVIWSMMCIRIITISCGRV the value was “inactive”. The figure for VSWLCSMKDICPHCDEINYR is 1.8 ± 0.062. For VSYGTCH, the amyloid nucleation score entry was “inactive”. For VTKARSHYTVSVLMDEKCMG the value was “inactive”; for VTLQLPDCFGRACIGLAYIA, “inactive”. The entry for VTPVTYQASLTICYSYKALH is “inactive”; for VTRHEFVLLLETVPISYWPH it is “inactive”.

As for VTRIW, the amyloid nucleation score result is “inactive”. For VTVCRHTPILIKKPM the value was “inactive”. The entry for VTWAAMWASRRVIQVITLRL is “inactive”.

Regarding VVASDNSTMVENWSFNGKMS, the amyloid nucleation score result was “inactive”. The substance VVCFFYNVF came in with an amyloid nucleation score of 2.36 ± 0.055. The entry for VVCIHLVVDTVC is “inactive”; for VVCLFDVKFESARVLDLLSV it is “inactive”; for VVGLWTNS it is “inactive”. For VVIFFRIQRVTCVWNVLL the value was “inactive”; for VVLMALVQVYFTSGGMFIKD, “inactive”; for VVLNWNTNGY, 0.669 ± 0.15. As for VVMFSTPDIVDILSHVYRLG, the amyloid nucleation score result is “inactive”. The entry for VVNRHGYLAMLK is “inactive”; for VVRFLDQKMYVVGLLSGS it is “inactive”; for VVVCNRIVNSSEFRCSYTRK it is 1.73 ± 0.09. For VVVKKSVVDAWSAYYFRLFV the value was “inactive”; for VWGYSMYVLQIWERYSSNV, 1.01 ± 0.13. For VWIRRTCDFNQYRESDLLIR the value was “inactive”; for VWNVQSFQ, “inactive”; for VWRAWAINGTATWCLIGDHG, “inactive”. As to VWRSNF, the amyloid nucleation score result was “inactive”. For VWSVHSHTQPMHSWSVRSAG the value was “inactive”.

As to VWTGHCMASFVRFTCSVVDD, the amyloid nucleation score result was “inactive”. For VWVSVWVVLTAV the value was “inactive”; for VWVVV, “inactive”; for VYAVIDWRDLCF, “inactive”. For VYCLAECYRIMRYAPFQVV the value was “inactive”; for VYDDSTIDT, “inactive”.

Regarding VYDVSQVGLSRSSFFGAVQA, the amyloid nucleation score result was “inactive”. The entry for VYECFSSWTWSWVCQCQAVF is “inactive”; for VYFENSGFTTVTREACLY it is “inactive”. As for VYFHSGSARFNTGTQL, the amyloid nucleation score result was “inactive”. As to VYFRFYNL, the amyloid nucleation score stood at 1.36 ± 0.073.

For the substance VYGLMIIWVIVLYPV, the amyloid nucleation score result was “inactive”. The entry for VYPWFA is “inactive”; for VYRLEVDISTILEGWSG it is “inactive”; for VYRLFRMYILTGGLNVNGGR it is “inactive”. The entry for VYSSVEFCISEKTHLKVWVL is “inactive”; for VYTRSGHV it is -0.112 ± 1.3; for VYVSYGTFWMSKVWWCDKPG it is “inactive”. For VYYVNS the value was 0.492 ± 0.18. Consider WAFSVKKWRTVLRKCILQWG, for which the amyloid nucleation score result is “inactive”. Regarding WAPLQALSFGK, the amyloid nucleation score result was “inactive”. For WAVCKAHDVSVDTDYYSSTG the value was 0.302 ± 0.45.
